{"source": "the RNAGym collection of RNA variant scans (doi:10.1073/pnas.2313332121)", "parents": {"B1": {"name": "TPR 5TU (parent)", "chain": "GGAUCUUCUCGAUCUAACAAAAAAGACAAAUCUGCCACAAAGCUUGAGAGCAUCUUCGGAUGCAGAGGCGGCAGCCUUCGGUGGCGCGAUAGCGCCAACGUUCUCAACUAUGACACGCAAAACGCGUGCUCCGUUGAAUGGAGUUUAUCAUG"}}, "note": "Fewer inactive variants are shown than the library holds.", "data": [{"variants_of": "B1", "assay": "polymerase ribozyme fitness, log enrichment relative to wild type (log ratio); higher = more active; in vitro selection for triplet polymerase activity", "method_in_brief": "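Each subunit of a heterodimeric triplet polymerase ribozyme was represented by a PCR-built, transcribed mutant library that underwent triplicate single-round in vitro selection with frozen incubation at −7 °C. Extended constructs were recovered by gel excision, streptavidin-bead capture and RT-PCR, and Illumina sequencing of input and output libraries kept genotypes with ≥10 input reads and ≥1 read per output. Fitness is the logarithm of genotype enrichment relative to wild-type enrichment, from inverse-variance-weighted replicate averages, with a logarithm base of 2.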", "values": [{"variant": "A20U G62C G94A", "polymerase ribozyme fitness (log ratio)": -3.04}, {"variant": "A20U C85G", "polymerase ribozyme fitness (log ratio)": -3.35}, {"variant": "A20U A23C A47G U77G G84C A97U C118U", "polymerase ribozyme fitness (log ratio)": "≤ -4.2"}, {"variant": "A20G G68U G126U C132A", "polymerase ribozyme fitness (log ratio)": "≤ -4.2"}, {"variant": "A21G C116G U144G", "polymerase ribozyme fitness (log ratio)": 1.13}, {"variant": "A21U A47G C54U G81C G92A C95A C99U", "polymerase ribozyme fitness (log ratio)": -3.94}, {"variant": "A22C A23G C93G C149U", "polymerase ribozyme fitness (log ratio)": "≤ -4.2"}, {"variant": "A20G G117A", "polymerase ribozyme fitness (log ratio)": -0.0564}, {"variant": "A21G C27G U33C G62U G81U C96U C105A A113U A122U", "polymerase ribozyme fitness (log ratio)": "≤ -4.2"}, {"variant": "A22C A28U G62A G65C U90A C99U C108U C116G", "polymerase ribozyme fitness (log ratio)": "≤ -4.2"}, {"variant": "A22C A26U C43U C76A C93G C118G", "polymerase ribozyme fitness (log ratio)": "≤ -4.2"}, {"variant": "A20C G50A C76G G80C A91U A98G", "polymerase ribozyme fitness (log ratio)": "≤ -4.2"}, {"variant": "A21U A39C G58A G94C C125G U148G", "polymerase ribozyme fitness (log ratio)": "≤ -4.2"}, {"variant": "A21U G48C G83A C118G U145A", "polymerase ribozyme fitness (log ratio)": -2.76}, {"variant": "A20G U55G C116U A121C", "polymerase ribozyme fitness (log ratio)": -0.705}, {"variant": "A20U A49C G50C G92U U146G C149U", "polymerase ribozyme fitness (log ratio)": "≤ -4.2"}, {"variant": "A21G G58A A122U U145G", "polymerase ribozyme fitness (log ratio)": 0.687}, {"variant": "A20G A21C G94A U146G", "polymerase ribozyme fitness (log ratio)": -0.812}, {"variant": "A20G A37U U111G", "polymerase ribozyme fitness (log ratio)": "≤ -4.2"}, {"variant": "A20U G48C C57G G128A", "polymerase ribozyme fitness (log ratio)": "≤ -4.2"}, {"variant": "A20G C27G G42C G58C G68A A121C C125U G140A", "polymerase ribozyme fitness (log ratio)": "≤ -4.2"}, {"variant": "A21U A39U U61G G92U C108A G141A", "polymerase ribozyme fitness (log ratio)": "≤ -4.2"}, {"variant": "A20U A29G G46C G50C A66U G83A", "polymerase ribozyme fitness (log ratio)": "≤ -4.2"}, {"variant": "A21C C69A", "polymerase ribozyme fitness (log ratio)": -1.75}, {"variant": "A21U G80A", "polymerase ribozyme fitness (log ratio)": -0.249}, {"variant": "A21G C54A G83U C87A C96U A122C", "polymerase ribozyme fitness (log ratio)": "≤ -4.2"}, {"variant": "A22C C32G C43G G92A C114U C118G U139A", "polymerase ribozyme fitness (log ratio)": "≤ -4.2"}, {"variant": "A21U U55A C93G A97U A115U", "polymerase ribozyme fitness (log ratio)": "≤ -4.2"}, {"variant": "A20C G84U", "polymerase ribozyme fitness (log ratio)": -3.03}, {"variant": "A20G C36U A119U A120C C129U A142G", "polymerase ribozyme fitness (log ratio)": -4.1}, {"variant": "A21C G84U U90C C116A A137C A138G", "polymerase ribozyme fitness (log ratio)": "≤ -4.2"}, {"variant": "A21C C57G", "polymerase ribozyme fitness (log ratio)": -0.649}, {"variant": "A21U U31A C85A", "polymerase ribozyme fitness (log ratio)": -0.251}, {"variant": "A20U U33C G71C G92U C96G A119U C125A", "polymerase ribozyme fitness (log ratio)": "≤ -4.2"}, {"variant": "A21U G141A", "polymerase ribozyme fitness (log ratio)": 1.36}, {"variant": "A22C G42U A49G C51U G92A U130G", "polymerase ribozyme fitness (log ratio)": "≤ -4.2"}, {"variant": "A21C C87U", "polymerase ribozyme fitness (log ratio)": 0.0419}, {"variant": "A20U G65C C85U A106U", "polymerase ribozyme fitness (log ratio)": "≤ -4.2"}, {"variant": "A22C C36U C51A C75G C87U", "polymerase ribozyme fitness (log ratio)": "≤ -4.2"}, {"variant": "A21C U90A G94C", "polymerase ribozyme fitness (log ratio)": "≤ -4.2"}, {"variant": "A20G C57U C99A C108U", "polymerase ribozyme fitness (log ratio)": "≤ -4.2"}, {"variant": "A22C A41C G50A A115G", "polymerase ribozyme fitness (log ratio)": -3.63}, {"variant": "A21U C85U", "polymerase ribozyme fitness (log ratio)": -0.171}, {"variant": "A22C A39G U144C", "polymerase ribozyme fitness (log ratio)": -4.03}, {"variant": "A20U A29G A52G A89U C96A", "polymerase ribozyme fitness (log ratio)": "≤ -4.2"}, {"variant": "A22C C96A A97U U101C", "polymerase ribozyme fitness (log ratio)": -1.53}, {"variant": "A20C U55A A110G", "polymerase ribozyme fitness (log ratio)": -3.9}, {"variant": "A22C G42C C69G A91U", "polymerase ribozyme fitness (log ratio)": "≤ -4.2"}, {"variant": "A20G G48A A119C A121U G136U", "polymerase ribozyme fitness (log ratio)": -3.51}, {"variant": "A20G U77A C85U C105U U135A A138G", "polymerase ribozyme fitness (log ratio)": "≤ -4.2"}, {"variant": "A21U C93A", "polymerase ribozyme fitness (log ratio)": -1.74}, {"variant": "A21C U56A C93A A121C U146G C149U", "polymerase ribozyme fitness (log ratio)": -2.29}, {"variant": "A21C A52G C103G", "polymerase ribozyme fitness (log ratio)": -1.21}, {"variant": "A20U A21G C51U G133C", "polymerase ribozyme fitness (log ratio)": "≤ -4.2"}, {"variant": "A21U G92A", "polymerase ribozyme fitness (log ratio)": -2.72}, {"variant": "A21C A49U C54U C85G G117A G124U", "polymerase ribozyme fitness (log ratio)": -3.06}, {"variant": "A21G C51U U53A C96U G126U", "polymerase ribozyme fitness (log ratio)": -2.46}, {"variant": "A20G C96U", "polymerase ribozyme fitness (log ratio)": -0.654}, {"variant": "A20C C75A C96U C118G G141A", "polymerase ribozyme fitness (log ratio)": "≤ -4.2"}, {"variant": "A22C A24U G50C G58A C93U G94U", "polymerase ribozyme fitness (log ratio)": "≤ -4.2"}, {"variant": "A20U C54A A66U U77C C116G C125A U148C", "polymerase ribozyme fitness (log ratio)": "≤ -4.2"}, {"variant": "A21C C63U A73C C95A A98U", "polymerase ribozyme fitness (log ratio)": -3.29}, {"variant": "A21U A29C A30C A39G U44A A49C U53A G68A C105U", "polymerase ribozyme fitness (log ratio)": "≤ -4.2"}, {"variant": "A21C A22U A89U G92C G94U G141A", "polymerase ribozyme fitness (log ratio)": "≤ -4.2"}, {"variant": "A22C A121U", "polymerase ribozyme fitness (log ratio)": -0.324}, {"variant": "A21U A73G C129G", "polymerase ribozyme fitness (log ratio)": -3.49}, {"variant": "A21G C38U A47C U90A C96A A137U", "polymerase ribozyme fitness (log ratio)": "≤ -4.2"}, {"variant": "A20U A41C G50A G141A", "polymerase ribozyme fitness (log ratio)": -4.03}, {"variant": "A21G C57A G74A C76G C87U G124U", "polymerase ribozyme fitness (log ratio)": "≤ -4.2"}, {"variant": "A21G G88A U90C U127C U135G C149U", "polymerase ribozyme fitness (log ratio)": "≤ -4.2"}, {"variant": "A20U G50A C85U", "polymerase ribozyme fitness (log ratio)": -3.83}, {"variant": "A21U C51U G126U", "polymerase ribozyme fitness (log ratio)": 0.375}, {"variant": "A20C G48U G59A A119U U135A U146C", "polymerase ribozyme fitness (log ratio)": -2.07}, {"variant": "A20G A52C", "polymerase ribozyme fitness (log ratio)": -1.28}, {"variant": "A21U C38A C57U U102G A119U", "polymerase ribozyme fitness (log ratio)": "≤ -4.2"}, {"variant": "A21G A52U C85G A119G C125U A137U", "polymerase ribozyme fitness (log ratio)": "≤ -4.2"}, {"variant": "A21C U56G G59A C72U A122U", "polymerase ribozyme fitness (log ratio)": -0.846}, {"variant": "A21G G141A", "polymerase ribozyme fitness (log ratio)": 1.12}, {"variant": "A20U A30G C38U G59C A60C A73U G92U", "polymerase ribozyme fitness (log ratio)": "≤ -4.2"}, {"variant": "A20G A21C G92A C108G", "polymerase ribozyme fitness (log ratio)": "≤ -4.2"}, {"variant": "A20G U33A U55G C87A G140C", "polymerase ribozyme fitness (log ratio)": "≤ -4.2"}, {"variant": "A21U A23U A29C C35G G48A", "polymerase ribozyme fitness (log ratio)": "≤ -4.2"}, {"variant": "A21U C96A G136A", "polymerase ribozyme fitness (log ratio)": 0.203}]}]}
